Measurements taken from the nanobody polyreactivity screen of Harvey et al. (2022).

Assay: yeast display, Sf9 membrane polyspecificity reagent, FACS + sequencing; frameworks hold sequencing errors
Outline: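 In a synthetic yeast display library (Saccharomyces cerevisiae BJ5465), nanobody expression was induced with galactose for 36–48 hours. FACS gates were set low and high (top ~1%) using anti-HA fluorescence for expression and streptavidin fluorescence for binding of the Sf9 membrane reagent. Each polyreactivity label is drawn from the gate of origin.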

Row | Sequence | polyreactivity (PSR sort gate)
1 | QVQLVESGGGIVQAGGRLRLSCAASGSIFLQYTMGWYRQAPGKERELVAAITESDGSTYYADSVKGRFTISRDNAKNTVYLQMNSLKPEDTAVYYCAADVVYFKYWDKYDYWGQGTQVTLSS | low polyreactivity
2 | QVQLVESGGGIVQAGGRLRLSCAASGYIFDIYAMGWNRQAPGKERELDADITRSGGGTYYADSVKGRFTISRDNAKNTVYLQMNSLKPEDTAVYYCAAESYVYGGSDYDYWGQGTQVTVSS | low polyreactivity
3 | QVQLVESGGGIVQAGGSHRLSCAASGRIFGVNAMGWYRQATGKERELVAAISVSGDSTYYADSVKGRFTISRDNAKNTVYLQMNSLKPEDTAVYYCNAGYTFVPADLTDEYYWGQGTQVTVSS | low polyreactivity
4 | QVQLVESGGGIVQAGGSHRLSCAASGRTFYRYAMGWYRQAPGTERELVAAITRRSGNTYYADSVKGRFTISRDNAKNNVYLQMISLKPEDTAVYYCAADPETWSPHYESLGYYWGQGTQVTVSS | high polyreactivity
5 | QVQLVESGGGIVQAGGSLRLICAASGSIFSSYVMGWYRQAPGKERELVAAITSRGGSTYYADSVKGRFTISRDNAKNTVYLQMNSLKPEDTAVYYCAKGGTTWYWSGYRSIYFRYDYWGQGTQVTVSS | high polyreactivity
6 | QVQLVESGGGIVQAGGSLRLRCAASGSTFYVYHMGWDRPAPGKERELVAAISSGAGSTYYADSVKGRFTISRDNAKNTVYLQMNSLKRKIPRSITALLFTVNGGGSRSHDYWAQGTQVTVSS | low polyreactivity
7 | QVQLVESGGGIVQAGGSLRLRWAASGLTSVRNAMGWYRQAPGKERELVAGISWSGGRTYYADSVKGRFTISRDNEKNTVYLQMNSLKPEDTGVYYCNKVRAYYTQEGSWGQGTQVTVSS | high polyreactivity
8 | QVQLVESGGGIVQAGGSLRLSCAASGFICGHYTMGWYRQAPGKERELVAAITTGGRTYYADSVKGRFTISRDNGKNTVYLQMISLKPEDTAVYYCAARGYIWGQGTPVTVSS | high polyreactivity
9 | QVQLVESGGGIVQAGGSLRLSCAASGFIFDSYAMGWYRQAPGKERELVAAITTSGGRTYYADSVKGRFTISRDNAKNTVYLQMNSLKPEDTAVYYCAAKYTARWGFDYWGQGTQVTVSS | high polyreactivity
10 | QVQLVESGGGIVQAGGSLRLSCAASGFIFPDYGMGWYRQAPGKERELVAAISRNGVSTYYADSVKGRFTISRDNAKNTVYLQMNSLKPEDTAVYYCAARYYRIRRVSKSGYYWGQGTQVTVSS | low polyreactivity
11 | QVQLVESGGGIVQAGGSLRLSCAASGFIFSYYVMGWYRQAPGKEREFVAAITYSGTYTYYADSVKGRFTISRDNAKNTVYLQMNSLKPEDTAVYYCAAYSPRYNAHDYWGQGTQVTVSS | high polyreactivity
12 | QVQLVESGGGIVQAGGSLRLSCAASGFNFSLYAMGWYRQAPGKERELVAVIDRRGGNTYYADSVKGRFTISRDNAKNTVYLQMNSLKPEDTAVYSCAADRRFHYDYWGQGTQVTVSS | high polyreactivity
13 | QVQLVESGGGIVQAGGSLRLSCAASGFTFAYYAMGWYRQAPGKERELVAAITRGGGRTFYADSVKGRFTISRDNAKNTVYLQMNSLKPEDTAVYYCAAVKDTTNSRGYGYWGQGTHVTVSS | high polyreactivity
14 | QVQLVESGGGIVQAGGSLRLSCAASGFTFGYYARGWYRQAPGKERELVAAISSRVGRTYYADSVKGRFTISRDNAKNTDYLQMNSLKPEDTAVYYCNTVGKTQWYYYWGQGTQVTVAS | high polyreactivity
15 | QVQLVESGGGIVQAGGSLRLSCAASGFTFSNNVMGGYRQAPGKERELVAAITWSGDGTYYADSVKGRFTISRDNAKNTVYLQMNSLKPEDTAVYYCNARYGKEYDYWGQGTQVTVSS | low polyreactivity
16 | QVQLVESGGGIVQAGGSLRLSCAASGFTFSRYTMGWFRPAPGQERELVAAINRRGGSTYYADSVKGRFTISRDNAKHTVYLQLNSVKPADTAVYYCAATYTVRSGNGIANDYWGQGTQVTVSS | high polyreactivity
17 | QVQLVESGGGIVQAGGSLRLSCAASGFTFTYNTKGWYRQEPGKERELVAAISRSGGSTYYADSVKGRFTISRDNAKNTVYLQLNSLKPEDSAVYYCAKQRRDDNGGYWGLGTQVTVSS | high polyreactivity
18 | QVQLVESGGGIVQAGGSLRLSCAASGFTFWSYAMGWYRPAPGKERELVAAISRGGSTSYADSVKGRFTISRDNAKNTVYLQLNSLKPEDTAVYYCAVVRARAYVYHGFYWGQGTQVTVSS | high polyreactivity
19 | QVQLVESGGGIVQAGGSLRLSCAASGFTLYYYAMGWYRQAPGKERELVAAITSSGTSTYYADSVKGRFTISRDNAKNTVYVQMNSLKPEDTAVYYCAAVSKIYHYRAVRLDDYWGQGTQVTVSS | low polyreactivity
20 | QVQLVESGGGIVQAGGSLRLSCAASGFTYDENAMGWYRQAPGINYSGASTYYAESVKGRFTISRDNAKNTVYLQMNSLKPEDTAVYYCAAEVVAQMNYWGQGTQVTVSS | low polyreactivity
21 | QVQLVESGGGIVQAGGSLRLSCAASGFTYWFYAMGWYRQAPGKERELVAAISRGGSTYYADSVKGRFTFSRDKAKNTVYLQMNSLKPEDTAVYYCAADFVHRGYYYWGQGTQVTVSS | high polyreactivity
22 | QVQLVESGGGIVQAGGSLRLSCAASGGIFFIYTMGWYRQAPGKERELVAAITSTGDTNYADSVKGRFTISRDNAKNTVYLQMNSLKPEDTAVYYCNKDYGTRGKGYDYWGQGTQVTVSS | low polyreactivity

Row | Sequence | polyreactivity (PSR sort gate)
23 | QVQLVESGGGIVQAGGSLRLSCAASGGTFNRYAMGWYRQAPGKERELVAAISNGGGRTYYADSVKGRFTISRDNAKNTVYLQMNSLKPEDNSVYYCAKDLTRTSYRSAFDYWGQGTQVTVSS | high polyreactivity
24 | QVQLVESGGGIVQAGGSLRLSCAASGGTFSRNAMGWYRQAPGKERELVAAINSSGVSTSYADSVKGRFTISRDNEKNTVYLQMNSLKPEDTAVYYCAAETSSAEVDYWGQGTQVTVSS | low polyreactivity
25 | QVQLVESGGGIVQAGGSLRLSCAASGIIFPVYAMGWYRQAPGKERELVAAISRSGGSTYYADSVKGRFTISRDNAKNNVYLQMNSLKPEDTAVYYCAARYVVGYSLSSYGYWGQGTQVTVSS | high polyreactivity
26 | QVQLVESGGGIVQAGGSLRLSCAASGIIFTGNAMGWYIQAPGKERELVAAITSGDTTNYADSVKGRFTISRDNAKNTVYLQMNSLKPEDTAVYYCAKELQVRQAGDYWGQGTQVTVSS | low polyreactivity
27 | QVQLVESGGGIVQAGGSLRLSCAASGIIIDGNAMGWYRQAPGKERELVAAISSRGGSTYYADSVKGRFTISRDYAKNTVYLQMNSLKPEDTAVYYCAAKVRHYYSASNYYYWGQGTQVTVSS | high polyreactivity
28 | QVQLVESGGGIVQAGGSLRLSCAASGIISRVYAMGWYRQAPGKERELVAAISGSGGTTYYADSVKGRFTISRDNAKNTVYLQMNRLKPEDTAVDYCAARYKALYDYWGQGTQVTVSS | high polyreactivity
29 | QVQLVESGGGIVQAGGSLRLSCAASGLIFLDNAMGWYRQAPGKEREFVAAIDSGGSTNYADSVKGRFTISRDNAKNNVYLQMNSLKPEDTAVYYCAAVWIYAPWYYQESVEYYYWGQGTQVSVSS | low polyreactivity
30 | QVQLVESGGGIVQAGGSLRLSCAASGLIFPWTYAMGWYRQAHGKEREFVAAITSSDGSTYYADSVKGRFTISRDNAKNTVYLQMNSLKPEDTAVYYCAAVGWDYDWDYYYWGQGTQVTVSS | high polyreactivity
31 | QVQLVESGGGIVQAGGSLRLSCAASGLTFYGYTMGWYRQAPGKERELVAAISWSGGNTYYADSVKGRFTISRDNAKNTVYLQMNSLKPDDTAVYYCAAVYVYLGVYARYPIWGYYYWGQGTQVTVSS | low polyreactivity
32 | QVQLVESGGGIVQAGGSLRLSCAASGLTIPPNAMGWYRQAPGKEREFVAAITWSGGSTYYADSVKGRFTISRDNAKNTVYLQMNRLKPEDSAVYYCNRVTAYYPTKFDYWGQGTQVTVSS | high polyreactivity
33 | QVQLVESGGGIVQAGGSLRLSCAASGNIFDDNAMGWYRQAPGKDRELVAAITSRGTRTYYADSVKGRFTISRDNAKNTVYLQMNSLKPEDTAVYYCAAGSYYWGQGSQVTVSS | high polyreactivity
34 | QVQLVESGGGIVQAGGSLRLSCAASGNIFHKNAMGWYRQAPGKERELVASISCSGGSTYYADSVKGRFTISRDNAKNTVYLQMNSLKPEDTAVYYCATDAFGYPVNRYALNDYWGQGTQVTVSS | low polyreactivity
35 | QVQLVESGGGIVQAGGSLRLSCAASGNILFSYAMGWYRQAPGKERELVAAISRSGGSTYYADSVKGRFTISRDNAKNTVYLQMNSLKPEDTAVYYCNAGVYYSYSVTEDYWGQGTQVTVSS | high polyreactivity
36 | QVQLVESGGGIVQAGGSLRLSCAASGNTFYAYTMGWYRPAPGKERELVAAISSDGSTNYAVSVKGSVTISRDHAKNTVYLQLNCLKPEDTAVYYCAKYTSSRFEYDYWGHGTQVTVSS | low polyreactivity
37 | QVQLVESGGGIVQAGGSLRLSCAASGNTFYPYTMGWYRQAPGKERELVADITYIGGDTYYADSVKGRFTISRDNAKNTVYLQMHTLKPEDTAVYYCNAVEVDHDYFYYGQNEYWGQGTQVTVSS | low polyreactivity
38 | QVQLVESGGGIVQAGGSLRLSCAASGPNFTDNAMGWYRQAPGKERELVAAITGPGGSTYYAHSVKGRFTISRDNAKTTVYLQMNSLKREDTAVFYCAADYYYPYYWGQGTQVTVSS | low polyreactivity
39 | QVQLVESGGGIVQAGGSLRLSCAASGRIFPHNAMGWDRQAPGKERELVAAITKSGDDTYYADSVKGRFTISRDNAKNTVYLQMNSLKPEDTAVYYCAAYLSWYDYWGQGTQVTVSS | low polyreactivity
40 | QVQLVESGGGIVQAGGSLRLSCAASGRIFVGYAMGWYRQAPGKEREFVAAITFRGGTTYYADSVKGSFTISRDNAKNTVYLQMNSLKPEDTAVYYCAVPHYLYSVEYGYWGQGTQVTVSS | low polyreactivity
41 | QVQLVESGGGIVQAGGSLRLSCAASGRIFVYNTMGWYRQAPGKEREFVAALSWRGGRTYYADSVKGRFTISRDNAKNTVYLQKNSLKPEDTAVYYCGADLKYYGYDYWGQGTHVTVSS | high polyreactivity
42 | QVQLVESGGGIVQAGGSLRLSCAASGRIFYFNAMGWYSQAPGKERELVAAISGSGGDTYYADSVKGRFTISRDNAKNTVYLQMNSLKPEDTAVYFCAKEYIFRLWGQGTQVTVSS | low polyreactivity
43 | QVQLVESGGGIVQAGGSLRLSCAASGRIFYINAMGWYRQAPGKERELVAAISTSGGCTYYADSVKGRFTISRDNAKKTVYLQMNSLKPEVTAVYYCAAALRYGYYGREYYYWGQGTKVTVSS | high polyreactivity
